Experimental data: the supplement of paper PMC11246515
± gives the standard deviation of the averaged measurements.

Assay: total protein half-life in vivo (active degradation + dilution); higher = more stable protein
[1] = E. coli NCM3722 delta-clpP delta-lon delta-hslV, growth: N-lim chemostat, doubling time 6 h
[2] = E. coli NCM3722 delta-clpP, growth: N-lim chemostat, doubling time 6 h
[3] = E. coli NCM3722 delta-hslV, growth: N-lim chemostat, doubling time 6 h
[4] = E. coli NCM3722 delta-lon, growth: N-lim chemostat, doubling time 6 h
[5] = E. coli NCM3722 delta-smpB, growth: N-lim chemostat, doubling time 6 h
[6] = wild type E. coli NCM3722, growth: N-lim chemostat, doubling time 6 h
[7] = wild type E. coli NCM3722, growth: N-lim chemostat, doubling time 12 h
[8] = wild type E. coli NCM3722, growth: P-lim chemostat, doubling time 12 h
[9] = wild type E. coli NCM3722, growth: C-lim chemostat, doubling time 3 h
[10] = wild type E. coli NCM3722, growth: C-lim chemostat, doubling time 6 h
[11] = wild type E. coli NCM3722, growth: C-lim chemostat, doubling time 12 h
[12] = wild type E. coli NCM3722, growth: P-lim chemostat, doubling time 6 h

| Sequence | total protein half-life in vivo [1] [h] | total protein half-life in vivo [2] [h] | total protein half-life in vivo [3] [h] | total protein half-life in vivo [4] [h] | total protein half-life in vivo [5] [h] | total protein half-life in vivo [6] [h] | total protein half-life in vivo [7] [h] | total protein half-life in vivo [8] [h] | total protein half-life in vivo [9] [h] | total protein half-life in vivo [10] [h] | total protein half-life in vivo [11] [h] | total protein half-life in vivo [12] [h] |
| --- | --- | --- | --- | --- | --- | --- | --- | --- | --- | --- | --- | --- |
| MSRTTTVDGAPASDTDKQSISQPNQFIKRGTPQFMRVTLALFSAGLATFALLYCVQPILPVLSQEFGLTPANSSISLSISTAMLAIGLLFTGPLSDAIGRKPVMVTALLLASICTLLSTMMTSWHGILIMRALIGLSLSGVAAVGMTYLSEEIHPSFVAFSMGLYISGNSIGGMSGRLISGVFTDFFNWRIALAAIGCFALASALMFWKILPESRHFRPTSLRPKTLFINFRLHWRDRGLPLLFAEGFLLMGSFVTLFNYIGYRLMLSPWHVSQAVVGLLSLAYLTGTWSSPKAGTMTTRYGRGPVMLFSTGVMLFGLLMTLFSSLWLIFAGMLLFSAGFFAAHSVASSWIGPRAKRAKGQASSLYLFSYYLGSSIAGTLGGVFWHNYGWNGVGAFIALMLVIALLVGTRLHRRLHA | 1.3 | 1.36 ± 0.35 | 1.46 ± 0.017 | 1.1 ± 0.07 | 2.24 ± 0.1 | 1.42 ± 0.079 | 2.65 ± 0.55 | 2.5 |  |  |  |  |
| MSRVNPLSSLSLLAVLVLAGCSSQAPQPLKKGEKAIDVASVVRQKMPASVKDRDAWAKDLATTFESQGLAPTLENVCSVLAVAQQESNYQADPAVPGLSKIAWQEIDRRAERMHIPAFLVHTALKIKSPNGKSYSERLDSVRTEKQLSAIFDDLINMVPMGQTLFGSLNPVRTGGPMQVSIAFAEQHTKGYPWKMDGTVRQEVFSRRGGLWFGTYHLLNYPASYSAPIYRFADFNAGWYASRNAAFQNAVSKASGVKLALDGDLIRYDSKEPGKTELATRKLAAKLGMSDSEIRRQLEKGDSFSFEETALYKKVYQLAETKTGKSLPREMLPGIQLESPKITRNLTTAWFAKRVDERRARCMKQ | 6.06 ± 0.21 |  |  |  | 5.8 ± 0.24 | 6.93 ± 0.84 | 12.9 ± 0.39 | 12.4 ± 0.53 | 3.28 ± 0.2 | 6.11 ± 0.086 | 11.2 ± 0.54 | 6.11 ± 0.4 |
| MSRVTAIISALIICIIVSLSWAVNHYRDNAIAYKVQRDKNARELKLANAAITDMQMRQRDVAALDAKYTKELADAKAENDALRDDVAAGRRRLHIKAVCQSVREATTASGVDNAASPRLADTAERDYFTLRERLITMQKQLEGTQKYINEQCR |  |  |  |  |  |  |  | 6.44 |  |  | 3.49 |  |
| MSSDIKIKVQSFGRFLSNMVMPNIGAFIAWGIITALFIPTGWLPNETLAKLVGPMITYLLPLLIGYTGGKLVGGERGGVVGAITTMGVIVGADMPMFLGSMIAGPLGGWCIKHFDRWVDGKIKSGFEMLVNNFSAGIIGMILAILAFLGIGPIVEALSKMLAAGVNFMVVHDMLPLASIFVEPAKILFLNNAINHGIFSPLGIQQSHELGKSIFFLIEANPGPGMGVLLAYMFFGRGSAKQSAGGAAIIHFLGGIHEIYFPYVLMNPRLILAVILGGMTGVFTLTILGGGLVSPASPGSILAVLAMTPKGAYFANIAGVCAAMAVSFVVSAILLKTSKVKEEDDIEAATRRMQDMKAESKGASPLSAGDVTNDLSHVRKIIVACDAGMGSSAMGAGVLRKKIQDAGLSQISVTNSAINNLPPDVDLVITHRDLTERAMRQVPQAQHISLTNFLDSGLYTSLTERLVAAQRHTANEEKVKDSLKDSFDDSSANLFKLGAENIFLGRKAATKEEAIRFAGEQLVKGGYVEPEYVQAMLDREKLTPTYLGESIAVPHGTVEAKDRVLKTGVVFCQYPEGVRFGEEEDDIARLVIGIAARNNEHIQVITSLTNALDDESVIERLAHTTSVDEVLELLAGRK | 6.55 ± 0.42 | 6.42 ± 0.66 | 6.25 ± 0.23 |  | 6.64 ± 0.41 | 6.4 ± 0.15 |  | 13.8 ± 1.2 | 3.35 ± 0.32 | 6.92 ± 0.54 | 12.66 ± 0.082 | 6.275 ± 0.059 |
| MSSFQFEQIGVIRSPYKEKFAVPRQPGLVKSANGELHLIAPYNQADAVRGLEAFSHLWILFVFHQTMEGGWRPTVRPPRLGGNARMGVFATRSTFRPNPIGMSLVELKEVVCHKDSVILKLGSLDLVDGTPVVDIKPYLPFAESLPDASASYAQSAPAAEMAVSFTAEVEKQLLTLEKRYPQLTLFIREVLAQDPRPAYRKGEETGKTYAVWLHDFNVRWRVTDAGFEVFALEPR | 5 ± 0.19 | 4.77 ± 0.35 | 4.77 ± 0.049 | 5.29 ± 0.31 | 5.06 ± 0.3 | 4.98 ± 0.3 | 10.1 ± 2.3 | 13.5 ± 1.7 | 2.89 ± 0.41 | 5.88 ± 0.54 | 9.48 ± 0.38 | 6.19 ± 0.56 |
| MSSHPYVTQQNTPLADDTTLMSTTDLQSYITHANDTFVQVSGYTLQELQGQPHNMVRHPDMPKAAFADMWFTLKKGEPWSGIVKNRRKNGDHYWVRANAVPMVREGKISGYMSIRTRATDEEIAAVEPLYKALNAGRTSKRIHKGLVVRKGWLGKLPSLPLRWRARGVMTLMFILLAAMLWFVAAPVVTYILCALVVLLASACFEWQIVRPIENVAHQALKVATGERNSVEHLNRSDELGLTLRAVGQLGLMCRWLINDVSSQVSSVRNGSETLAKGTDELNEHTQQTVDNVQQTVATMNQMAASVKQNSATASAADKLSITASNAAVQGGEAMTTVIKTMDDIADSTQRIGTITSLINDIAFQTNILALNAAVEAARAGEQGKGFAVVAGEVRHLASRSANAANDIRKLIDASADKVQSGSQQVHAAGRTMEDIVAQVKNVTQLIAQISHSTLEQADGLSSLTRAVDELNLITQKNAELVEESAQVSAMVKHRASRLEDAVTVLH |  |  |  |  |  |  |  |  | 2.72 ± 0.7 |  |  |  |
| MSSKEQKTPEGQAPEEIIMDQHEEIEAVEPEASAEQVDPRDEKVANLEAQLAEAQTRERDGILRVKAEMENLRRRTELDIEKAHKFALEKFINELLPVIDSLDRALEVADKANPDMSAMVEGIELTLKSMLDVVRKFGVEVIAETNVPLDPNVHQAIAMVESDDVAPGNVLGIMQKGYTLNGRTIRAAMVTVAKAKA | 6.35 ± 0.23 | 6.61 ± 1.3 | 5.31 ± 0.46 | 5.19 ± 0.26 | 4.79 ± 0.18 | 5.66 ± 0.14 | 8.74 ± 0.79 | 10.7 ± 0.15 | 3.024 ± 0.0063 | 5.43 ± 0.17 | 9.26 ± 0.18 | 5.26 ± 0.24 |
